The target of assay [1] is T1, His-tagged cynomolgus CTLA-4 (CT4-C5227; Acro Biosystems) (cynomolgus, UniProt G7PL88 36-161).
T1 construct: also called soluble cynomolgus CTLA-4; cyno CTLA-4
The assay can be described thus: BLI (Octet). In short, it runs like this: (§1)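 Antibodies captured on anti-human IgG Fc (AHC) biosensors (Octet Red96); antigen analyte from 300 nM in 6 serial 1:3 dilutions. Kinetics from global fitting to a 1:1 binding model.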
On the technique in general: In BLI a coated tip is dipped into the sample, and binding shifts an interference pattern.

Another assay addresses mouse CTLA-4 (mouse, UniProt P09793 36-161, limits assumed). In words: BLI (Octet). An outline of the steps:
as §1

For assay [2], the target named is T2, His-tagged human CTLA-4 (CT4-H5229; Acro Biosystems) (human, UniProt P16410 36-161).
T2 construct: bought soluble protein; also called soluble human CTLA-4; recombinant human CTLA-4; not shown: His tag
T2 sequence (P16410 36-161 limits assumed): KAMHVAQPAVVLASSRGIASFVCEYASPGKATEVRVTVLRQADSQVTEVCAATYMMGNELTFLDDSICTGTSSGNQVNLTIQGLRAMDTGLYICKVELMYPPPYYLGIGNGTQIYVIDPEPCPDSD
In words: SPR (Carterra). In short, it runs like this:
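mAb supernatants captured, at two densities, on an anti-human IgG Fc lawn. His-tagged human CTLA-4 injected at 1.95, 7.8, 31.25, 125 and 500 nM in HBS-EPC pH 7.4 with 1.0 mg/mL BSA, as a non-regenerative series with 5-min association and 15-min dissociation. Double-referenced data fitted for ka, kd and KD.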

The target of assay [3] is human CTLA-4 expressed on the cell surface (human, UniProt P16410 36-223). In words: cell-based or functional assay.
Sequence of human CTLA-4 expressed on the cell surface (P16410 36-223 limits assumed): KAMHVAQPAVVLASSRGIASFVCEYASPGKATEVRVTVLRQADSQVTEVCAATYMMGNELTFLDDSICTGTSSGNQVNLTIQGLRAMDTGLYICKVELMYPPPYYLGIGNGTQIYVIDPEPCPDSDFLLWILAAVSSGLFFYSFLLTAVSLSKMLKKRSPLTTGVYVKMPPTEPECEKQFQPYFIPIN
Assay [4] has as its target T2, His-tagged human CTLA-4 (CT4-H5229; …). In words: SPR (Carterra), soluble human CTLA-4.
The next assay deals with T3, CD27 on CHO cells (UniProt P26842 20-260, limits assumed).
T3 construct: whole, on cells; also called CD27+ CHO cells; irrelevant antigen (CD27)
T3 sequence (P26842 20-260 limits assumed): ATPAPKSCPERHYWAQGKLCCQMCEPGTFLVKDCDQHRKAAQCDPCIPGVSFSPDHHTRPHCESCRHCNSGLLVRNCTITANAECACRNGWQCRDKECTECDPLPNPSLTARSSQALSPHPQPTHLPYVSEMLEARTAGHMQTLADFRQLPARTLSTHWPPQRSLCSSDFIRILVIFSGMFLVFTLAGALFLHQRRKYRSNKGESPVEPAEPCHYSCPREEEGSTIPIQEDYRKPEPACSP
In words: flow cytometry, mixed CTLA-4+ and CD27+ CHO cells. In short, it runs like this:
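CHO cells stably expressing human CTLA-4 mixed with CD27-expressing CHO cells, then incubated with 10 μg/mL mAb for 30 min at 4 °C. Bound mAb detected with PE anti-human IgG Fc, CD27 cells gated by FITC anti-CD27; cells fixed in 4% paraformaldehyde before flow cytometry.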

Assay [5] addresses T4, recombinant human CTLA-4-Fc (7268-CT, R&D Systems) (human, UniProt P16410 36-162).
T4 construct: bought; also called rhCTLA-4-Fc; rhCTLA4-Fc; Fc part of the bought chimera not given
The assay can be described thus: blocking ELISA, plate rhCTLA4-Fc, competitor rhCD80-His. How it is done: Plates were coated with rhCTLA4-Fc and then blocked with 1×PBST with 5% w/v nonfat dry milk. After blocking a dilution series of the indicated antibody was added to the plate.
(In general: An ELISA detects its analyte on a solid surface through an enzyme-linked reagent.)

T1 sequence (G7PL88 entry or part of it limits assumed, form in doubt): as the sequence (P16410 36-161 limits assumed) above, with S14N, I18T, L106M counted along it
T4 sequence (P16410 36-162): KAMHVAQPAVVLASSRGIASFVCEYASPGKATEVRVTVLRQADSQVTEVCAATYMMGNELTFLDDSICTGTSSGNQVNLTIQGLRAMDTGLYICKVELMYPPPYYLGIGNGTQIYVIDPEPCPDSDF
Sequence of mouse CTLA-4 (P09793 36-161 limits assumed): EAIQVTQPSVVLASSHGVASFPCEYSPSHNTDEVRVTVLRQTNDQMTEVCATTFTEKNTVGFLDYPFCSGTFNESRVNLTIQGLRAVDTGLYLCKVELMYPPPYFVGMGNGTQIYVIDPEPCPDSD

B1: antibody A2 (L2H2) (antibody, V domains shown)
VH: QVQLVESGGGVVQPGRSLRLSCAASGFTFSNYGMNWVRQAPGKGLEWVAVIWYDGRNKHYADSVKGRFTISRDNSKNTLYLQMNSLRAEDTAVYYCARGGDWGPYFDYWGQGTLVTVSS
VL: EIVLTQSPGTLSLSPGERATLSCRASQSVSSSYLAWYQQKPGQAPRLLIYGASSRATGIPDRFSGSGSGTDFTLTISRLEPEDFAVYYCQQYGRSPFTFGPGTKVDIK
notes: also called aCTLA-4.4; CTLA4.A2
B1: in assay [1], the dissociation constant (Kd) turned out to be 3.1 nM. In the assay with mouse CTLA-4, the binding result is “no binding (tested: 300 nM)”. This molecule also had an equilibrium dissociation constant (Kd) in assay [2] of 5.1 nM. Also, in assay [3], the “Cell-based blocking activity EC50” value came to 0.12 µg/mL and the “Cell-based blocking activity max signal (RLU)” value was 413 RLU. In assay [4], this molecule came in with a Kd of 5.1 nM, an off-rate constant (koff) of 0.00052 s⁻¹ and an on-rate (kon) of 100000 M⁻¹ s⁻¹. Moreover, the binding result with CD27 on CHO cells is recorded as “no binding (tested: 10 µg/mL)”. Further, in assay [5], the CD80 % inhibition amounted to 95.4% and the EC50 was 0.101 µg/mL.

B2: antibody A7 (L7H7) (antibody, V domains shown)
VH: QVQLVESGGGVVQPGRSLRLSCAASGFTLSSFGMHWVRQAPGKGLEWVAVIWYDGSNKYYADSVKGRFIISRDNSKTALYLQMNSLRAEDTAVYYCARAHYFGAFDIWGQGTMVTVSS
VL: not shown
notes: also called aCTLA-4.3; CTLA4.A7
In assay [1], B2 had a Kd of 0.75 nM. Also, the binding result in the assay with mouse CTLA-4 is on record as “no binding (tested: 300 nM)”. The dissociation constant (Kd) in assay [2] worked out at 5.7 nM. For the same molecule, in assay [3], the “Cell-based blocking activity EC50” value came to 0.17 µg/mL and the “Cell-based blocking activity max signal (RLU)” value came to 63 RLU. In assay [4], this molecule showed a Kd of 5.7 nM, a koff of 0.00036 s⁻¹ and a kon of 64000 M⁻¹ s⁻¹. Moreover, the binding result with CD27 on CHO cells was “no binding (tested: 10 µg/mL)”. Further, in assay [5], the CD80 % inhibition is 92.1% and the 50% effective concentration (EC50) was determined as 0.996 µg/mL.

B3: antibody A5 (L5H5) (antibody, V domains shown)
VH: QVQLVESGGGVVQPGRSLRLSCAASGFTFSSYGMHWVRQAPGKGLEWVAVIWYDGNNKYYADSVKGRFTISRDNSKNTLYLQMYSLRAEDTAVYYCARGGILAAGIFDYWGQGTLVTVSS
VL: EIVLTQSPGTLSLSPGDRATLSCRASQSGSSSYLAWYQQKPGQAPRLLIYGASSRATGIPDRFSGSGSGTDFTLTISRLEPEDFAVYYCQQYGTSPFTSGPGTKVDIK
notes: also called aCTLA-4.28; CTLA4.A5
B3 showed an equilibrium dissociation constant (Kd) in assay [1] of 2.2 nM. The same molecule yielded a Kd with mouse CTLA-4 of 39.4 nM. Further, binding in assay [2] was characterised by a dissociation constant (Kd) of 4.6 nM. In assay [3], the “Cell-based blocking activity EC50” value is 0.18 µg/mL and the “Cell-based blocking activity max signal (RLU)” value worked out at 548 RLU. In assay [4], this molecule displayed a dissociation constant (Kd) of 4.6 nM, a koff of 0.00042 s⁻¹ and a kon of 90000 M⁻¹ s⁻¹. Further, the binding result in the assay with CD27 on CHO cells was “no binding (tested: 10 µg/mL)”. In assay [5], the CD80 % inhibition turned out to be 96.3% and the half-maximal effective concentration (EC50) came out at 0.0705 µg/mL.

Broadly, the Kd is the constant that tells how readily two partners part at equilibrium. As a reminder, the koff is the first-order rate constant of dissociation. Read a low koff as slow dissociation. For orientation: kon means a measure of how fast the partners come together. Low values mean slow association, high ones fast association. As usually defined, the EC50 is the concentration needed to bring the measured effect to its halfway point.

The record behind these values is patent publication US20230265192A1 (GIGAGEN, published 2023).
